The values that follow come from patent publication US20160051704A1, “MOLECULAR IMAGING PROBES FOR LUNG CANCER INTRAOPERATIVE GUIDANCE” (H. Lee Moffitt Cancer Center and Research Institute, Inc., priority 2013, published 2016).

The Ki is the equilibrium dissociation constant of an inhibitor or competing ligand from its target. The low end stands for tighter binding, the high end for weaker binding.

For experiment [1], the target named is delta opioid receptor (δOR) on HCT-116/δOR cells (UniProt P41143). The experiment can be described thus: TRF competitive binding against Eu-labeled DPLCE on HCT116/δOR cells.
The target is the same in experiment [2]. The experiment can be described thus: LTRF competitive binding against Eu-DTPA-DPLCE (5 nM) on whole HCT-116/δOR cells; average of three experiments.

As to “Dmt-Tic-Lys(Cy5)-OH (Cy5 labeled ligand 1) (peptide)”, in experiment [1], the Ki stood at 3 nM.

As for “Dmt-Tic-IR800 (Compound 1 of Scheme 4) (peptide)”, the Ki in experiment [2] was determined as 1.43 nM. On to “Dmt-Tic-Lys(Mpr)-OH (ligand 6) (peptide)”, for which the Ki in experiment [1] stood at 2.5 nM.
